Measurements published in US20250288643A1.

Molecular target: monkey CD47 on LLC-MK2 cells (rhesus monkey) (UniProt H9ERV1)
Assay: flow cytometry, LLC-MK2 cells

- EC50 (read off the curve): 60 pM
Substance: Hu5F9-G4 (antibody)
